± gives the standard deviation of the averaged measurements.

This data set relates to ATP. Put plainly: switch fluorescence ratio, 500 uM ATP over buffer (Cy3 cluster intensity, sum of 5 cycles each) (fold (ratio)); higher = stronger signal-on switching upon ATP binding; sequences stand for … in TCGTCGGCAGCGTCAGATGTGTATAAGAGACAGTTTTTTTTTTTTTTTTTTTTTTTTT…TC. The following applies: aptamer strand: ATP DNA aptamer (quencher-CACCTGGGGGAGTATTGCGGAGGAAGG + anchor), 100 nM annealed; ATP concentration: 500 uM. The method, boiled down:
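Exposure to 500 uM ATP lasted 15 min at 22 °C before imaging, and a selection-buffer image was taken beforehand, for Cy3-labelled switching-strand clusters on a modified Illumina MiSeq flow-cell annealed to 100 nM quencher-labelled ATP aptamer. Five buffer/ATP cycles were run with NaOH stripping and re-annealing between them. The fluorescence ratio per cluster is summed target-cycle over summed buffer-cycle Cy3 intensity, averaged per switch-domain sequence. Clusters outside 100-1000 RFU were excluded.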
Turning to TTTGTGGGC, the switch fluorescence ratio came out at 0.981 ± 0.028.
Regarding GCTATTGGCA, the switch fluorescence ratio stood at 1.014 ± 0.01.
For ATCTGGGGGA the value was 0.979 ± 0.046; for TTCTTGGGGG, 1.01 ± 0.029.
On to GGGGTGCGGT, for which the switch fluorescence ratio came to 0.998 ± 0.017.
Take TAAGTGGAC: the switch fluorescence ratio was 1.039 ± 0.0089.
As for GATTAAGGAG, the switch fluorescence ratio was determined as 0.995 ± 0.011.
For TTTGTAGGGA the value was 1.02 ± 0.028; for TTTGTGTGGG, 1.03 ± 0.03; for TTTTTAGTCC, 1 ± 0.023.
For AAGTTCCGAG the value was 1.18 ± 0.045; for TATTACCTTA, 1.03 ± 0.044.
For TGTGGTTTGT the value was 1 ± 0.035; for GCGTCGTCGG, 1.01 ± 0.036.
Turning to AGGGGGGCTT, the switch fluorescence ratio was found to be 1.01 ± 0.054.
Regarding TTTCGACACG, the switch fluorescence ratio is 0.989 ± 0.018.
To ACGGCTTACT belongs 1.208 ± 0.0019; to TTGACAGAGT, 1.01 ± 0.028.
For TGGTTCACGT the value was 1 ± 0.024; for CTGAGGTTAT, 1.04 ± 0.038; for GGTAGTAGTA, 1 ± 0.034.
As to CCTGGCGCCA, the switch fluorescence ratio was 1.006 ± 0.0021.
Consider TAAATTATGG, for which the switch fluorescence ratio was found to be 0.996 ± 0.021.
For TTGCAAATCG the value was 1.11 ± 0.18; for TTGGGTGTTG, 0.997 ± 0.037.
For AATTGATTCT the value was 1.026 ± 0.0018; for TTTTCTATGG, 1 ± 0.082; for GGGGTGAATC, 1.03 ± 0.045.
To TCATGAGATT belongs 1.02 ± 0.021; to GACGATGTCT, 1.0078 ± 0.00071; to GAAATCGCTG, 0.97 ± 0.072.
In the case of GTGAGGGATA, the switch fluorescence ratio was 0.984 ± 0.043.
To TCTGGTTTTT belongs 1.01 ± 0.015; to AAAATCGAGG, 1.016 ± 0.004.
For TTTCCTTTTG the value was 1.01 ± 0.054.
To TTTATGAGGG belongs 1.02 ± 0.047; to GGGCGTTGGG, 0.948 ± 0.059; to ATTGTAGGAG, 0.9966 ± 0.0058.
As to GGGGTAACAG, the switch fluorescence ratio amounted to 1.01 ± 0.044.
To CCATGTTGCT belongs 0.9612 ± 0.0059; to ATCAAACTCG, 0.979 ± 0.029; to AAAGAGAATA, 0.987 ± 0.036.
For the sequence TTGTAAACTT, the switch fluorescence ratio worked out at 1.03 ± 0.012.
Regarding CAGAGAGGTC, the switch fluorescence ratio was 1.03 ± 0.039.
Regarding TCAGTGGGGT, the switch fluorescence ratio amounted to 1.004 ± 0.0072.
To TCAACTATTA belongs 0.977 ± 0.018; to CGGGAGTTAA, 1.01 ± 0.015; to CAAAAGCCTA, 0.974 ± 0.053.
Turning to GCACCAAGGA, the switch fluorescence ratio worked out at 1.07 ± 0.036.
To GAGAGCTGCG belongs 1 ± 0.039; to TAGGAGAAGT, 0.991 ± 0.042; to ACGTCGGGCT, 1.01 ± 0.021.
For the sequence TTTCAGGGGA, the switch fluorescence ratio came out at 1.19 ± 0.32.
For GGAATGGTCG the value was 0.977 ± 0.13.
For CTACATGAAA the value was 1.006 ± 0.0034; for GGAGTTGGG, 0.968 ± 0.012.
In the case of TCTGGGTAAT, the switch fluorescence ratio stood at 0.996 ± 0.0013.
For TTTACTTGTA, the switch fluorescence ratio was 1.01 ± 0.023.
For the sequence CAGTTAGGGG, the switch fluorescence ratio came to 1.02 ± 0.013.
To GAGGGGTCCT belongs 1.24 ± 0.39; to TGAGGGCGAT, 1.033 ± 0.0019; to CGGGCGGCAG, 1.04 ± 0.027.
As to GTGAGTTTTA, the switch fluorescence ratio was found to be 0.971 ± 0.019.
In the case of GCGGACCGGT, the switch fluorescence ratio stood at 0.968 ± 0.04.
Take TATGGTAGGG: the switch fluorescence ratio was found to be 0.9886 ± 0.0076.
As to ATTGAGGAGG, the switch fluorescence ratio stood at 1.02 ± 0.023.
For GGGGTTATTG the value was 0.986 ± 0.038; for GGTGGGAGGC, 0.999 ± 0.059; for GCAAGTGCAC, 0.978 ± 0.04.
Take GCCGAAATGT: the switch fluorescence ratio is 1.06 ± 0.097.
CGGCGTACAT: the switch fluorescence ratio amounted to 1.04 ± 0.02.
To ATTTAGACTT belongs 1.039 ± 0.01; to TTGATGGATG, 1.04 ± 0.09; to TCGGTTTGGA, 1.019 ± 0.0063.
For CACTGCTCCT, the switch fluorescence ratio was determined as 1.09 ± 0.013.
Consider ATCGGGAGGA, for which the switch fluorescence ratio worked out at 1 ± 0.029.
For GGGGTGGTGT, the switch fluorescence ratio amounted to 1.03 ± 0.027.
As for GAGGTCAGGT, the switch fluorescence ratio turned out to be 1.01 ± 0.021.
On to GTTGTGGGGT, for which the switch fluorescence ratio was 0.976 ± 0.025.
For TGGTCTTTTT the value was 0.995 ± 0.037; for GGCCCCTATT, 1.023 ± 0.01.
For AAGCTACTGG, the switch fluorescence ratio turned out to be 1.0513 ± 0.00024.
In the case of TCTGGTTTGT, the switch fluorescence ratio is 1.04 ± 0.049.
To CCTTGCCCTT belongs 1.03 ± 0.014; to GCAGTTGGAA, 1.058 ± 0.0089; to GGCTTTGGGG, 0.975 ± 0.04.
For ACGAGTTTGG the value was 0.963 ± 0.036; for TATGCATGTG, 0.996 ± 0.015; for AGGTTTGATC, 1.006 ± 0.0096.
For GAGTAAGAGT, the switch fluorescence ratio turned out to be 1.0175 ± 0.00091.
To GGTAACCGGG belongs 1.019 ± 0.0016; to TAAGTTAGGG, 0.972 ± 0.029.
Turning to CCGGTCTGGC, the switch fluorescence ratio was found to be 1.01 ± 0.013.
To AAAAAGTTTG belongs 1 ± 0.04; to GACAGGTATC, 1.01 ± 0.057; to TATACGTGCC, 1.03 ± 0.025.
Regarding AGTGGTGGGA, the switch fluorescence ratio was 1.01 ± 0.033.
To AAGTGGTGGG belongs 0.985 ± 0.024; to ATAGTCATAT, 0.9978 ± 0.0017.
As to GGGTTGACTT, the switch fluorescence ratio was determined as 1.015 ± 0.0018.
For CTGGGGAGCG the value was 0.954 ± 0.034; for ATGGATTGCA, 0.994 ± 0.023.
For GCGATTTTAA, the switch fluorescence ratio is 1.02 ± 0.048.
In the case of TAGGCCGTTT, the switch fluorescence ratio worked out at 1 ± 0.084.
Take CAGCGGGGGT: the switch fluorescence ratio worked out at 1.03 ± 0.05.
To ATCGGGAATG belongs 1.019 ± 0.0018; to CATTCGATGC, 1.265 ± 0.0044; to TATGGGTAAT, 0.975 ± 0.016.
For TTGGCCTATA the value was 0.973 ± 0.021; for TTAAGTACGC, 1.29 ± 0.014; for ATAAGGGGAT, 0.983 ± 0.023.
For AAACTGTTTC the value was 1.02 ± 0.016; for TACAGCAGTG, 1.02 ± 0.023.
Consider GGGGAAGTGC, for which the switch fluorescence ratio was determined as 1.01 ± 0.055.
As to AGAGAGCAAG, the switch fluorescence ratio is 1.07 ± 0.043.
Regarding CGGATTAGAG, the switch fluorescence ratio is 0.9641 ± 0.0032.
For ATGGTCCCTG, the switch fluorescence ratio stood at 0.997 ± 0.035.
Take TAAGGGGGAT: the switch fluorescence ratio is 1.021 ± 0.0082.
For the sequence TTGCACCATT, the switch fluorescence ratio was determined as 1.05 ± 0.12.
For AGGGGGTT the value was 1 ± 0.077.

For the origin of these results see the supplement of paper PMC10126150.
